Legend:
Conditions in all cases: EMSA: 20 mM phosphate pH 8.0, 100 mM NaCl, 5% glycerol, with or without TX-100, 0.1 nM 32P-DNA, 20 min on ice, 6% native PAGE
[1] = biological target: T1, rSarA (Staphylococcus aureus) (UniProt A6QES8); assay: DNase I footprinting
T1 sequence: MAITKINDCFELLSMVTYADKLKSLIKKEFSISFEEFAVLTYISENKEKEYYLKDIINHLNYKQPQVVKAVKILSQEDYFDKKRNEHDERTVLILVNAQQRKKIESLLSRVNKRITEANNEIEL

[2] = system: C9W (rSarA C9W) (Staphylococcus aureus); assay: EMSA
[3] = system: rSarA (Staphylococcus aureus); assay: EMSA
[4] = system: rSarA (Staphylococcus aureus); assay: EMSA; remark: listed apart in the source
[5] = system: rSarA (Staphylococcus aureus); assay: EMSA; remark: listed apart in the source
[6] = system: rSarA (Staphylococcus aureus); assay: EMSA; remark: listed apart in the source
[7] = system: C9W (rSarA C9W) (Staphylococcus aureus); assay: EMSA; remark: listed apart in the source
[8] = system: C9W (rSarA C9W) (Staphylococcus aureus); assay: EMSA; remark: listed apart in the source
[9] = system: C9W (rSarA C9W) (Staphylococcus aureus); assay: EMSA; remark: listed apart in the source

Row | Substance | binding [1] | Kd [2] | Kd [3] | Kd [4] | Kd [5] | Kd [6] | Kd [7] | Kd [8] | Kd [9]
1 | CTATTAGATATTTCTATGTAATGGCAAAATTTATTCCCGACGAAATTCCAAACATAATTAATACCCTTTTTCTCTATTTCTATTTATTAATTTACACTAGTTAATATATAGTTAATTTTTATTTAATAGTTAATTAATTGATTTAATTCTAAGATATTTGTATTTTTATATTGTAATCGATTACATTTTTAAATCAAACAAATCATTAGTTTTAAAGAAATTAATCAATAAAATTAGCTATGT (double strand) [hla promoter DNA, bottom strand labelled (footprinting)] | binds |  |  |  |  |  |  |  | 
2 | hla promoter DNA |  | 398 nM | 364 nM | 35 nM | 50 nM | 20 nM | 97 nM | 58 nM | 60 nM
